In US6875741:
No end group written: not given here.

Experiments:
[1] = target: soluble human insulin receptor-immunoglobulin heavy chain chimera (human) (UniProt P06213); test: phage ELISA ratios compared
[2] = target: soluble human insulin receptor-immunoglobulin heavy chain chimera (human) (UniProt P06213); test: phage ELISA over milk background
[3] = target: insulin receptor prepared according to Bass et al., 1996 (soluble IR) (human) (UniProt P06213); test: phage ELISA; A405 on IR / A405 on non-fat milk
[4] = target: insulin receptor prepared according to Bass et al., 1996 (soluble IR) (human) (UniProt P06213); test: phage ELISA; IR ratio over background divided by IGF-1R ratio
soluble IGF-1R [5] = target: soluble IGF-1R (UniProt P08069); test: phage ELISA; IGF-1R ratio over background divided by IR ratio
soluble IGF-1R [6] = target: soluble IGF-1R (UniProt P08069); test: phage ELISA; A405 on IGF-1R / A405 on non-fat milk
[7] = target: soluble human insulin receptor-immunoglobulin heavy chain chimera (human), P06213; test: ratio of IC50 on rhIGF-1R (TR-FRET vs b-20E2) to IC50 on sIR-Fc (FP vs FITC-RP9); details: remark: other sources report otherwise

| Binder | IR/IGF-1R ratio comparison [1] | ratio over background [2] | ratio over background (fold over background) [3] | IR/IGF-1R ratio comparison [4] | IGF-1R/IR ratio comparison (soluble IGF-1R [5]) | ratio over background (fold over background) (soluble IGF-1R [6]) | Binding Ratio IGF-1R/IR [7] |
| --- | --- | --- | --- | --- | --- | --- | --- |
| RCEEKQAEVGPSSDPFYHKMSELLGCR [B6Hα-3-E9-IR] | 0.1 | 1.7 |  |  |  |  |  |
| DYKDQSGSGDFYDWLSRLIRGNGDGAAAGAP (peptide, not shown: large carriers) [20E2Bβ-3-C7-IR] |  |  | 1.5 | 0.5 | 2 | 3.1 |  |
| LRIANLFYQRLWDLAFGGGG [20E2B-3-E8-IGFR] | 0.1 | 1.5 |  |  |  |  |  |
| SSYGCDGFYLMLFSLGLVASQELEC [20C-3-A1-IGFR] | 0.1 | 1.5 |  |  |  |  |  |
| GCVVEWQKWHGASDPFYHKLSELGGCS [B6Hα-3-F10-IR] | 0.2 | 1.9 |  |  |  |  |  |
| DYKDAGSVTSFYDAMEQLVATGTSAAAAGAP (peptide, not shown: large carriers) [20E2A-3-A4-IGFR] |  |  | 1.8 |  | 1.4 | 2.5 |  |
| RGMKEEVLVGGSTDPFYHKLSELLQGS [B6Hα-3-F11-IR] | 0.1 | 1.6 |  |  |  |  |  |
| DYKDRCGDEEGWQENRRDDPFYHKLSELFGGCAAAGAP (peptide, not shown: large carriers) [B6Hα-3-E5-IR] |  |  | 1 | 0.3 | 2.9 | 2.9 |  |
| QPDHSYFYSLLQELVGSEERL [20E2B-4-F9-IGFR] | 0.1 | 1.9 |  |  |  |  |  |
| DYKDSSETAKMVTGTRDDPFYHKLSELVQGSAAAGAP (peptide, not shown: large carriers) [B6Hα-2-D8-IR] |  |  | 1 |  |  | 3 |  |
| DYKDVDTPAQVGWNRLWSVGPGEHWYTDDPFYHXLSELLRESGAAAAGAP (peptide, not shown: large carriers, not fully specified; X: residue not identified in the source) [B6L-3-G6-IR] |  |  | 1.8 |  | 1.4 | 2.5 |  |
| DYKDSRVAATKEKRPSDDPFYHKLSELLQGSAAAGAP (peptide, not shown: large carriers) [B6Hα-3-F7-IR] |  |  | 1 | 0.3 | 3.1 | 3.1 |  |
| LQPCSGFYECIERLIGVKLSG [20E2Bβ-4-G7-IR] | 0.1 | 1.6 |  |  |  |  |  |
| DYKDLSCLAYSRHGIWRPSTDLGLGRSVGEGSVSTRWRGYDWFEAAAGAP (peptide, not shown: large carriers) [40F-4-D1-IGFR] |  |  | 0.3 | 0.1 | 13.1 | 4.6 |  |
| YRGMLVLGRISGGAGKAASERPARIGQKVSAVNFYDWFV [A6L-0-H3-IR] | 0.1 | 2 |  |  |  |  |  |
| GGTKAVAKVGTRDDPFYHKLSELLQGS [B6Hα-4-G8-IR] | 0.3 | 1.7 |  |  |  |  |  |

| Binder | IR/IGF-1R ratio comparison [1] | ratio over background [2] | ratio over background (fold over background) [3] | IR/IGF-1R ratio comparison [4] | IGF-1R/IR ratio comparison (soluble IGF-1R [5]) | ratio over background (fold over background) (soluble IGF-1R [6]) | Binding Ratio IGF-1R/IR [7] |
| --- | --- | --- | --- | --- | --- | --- | --- |
| CWARPCGDAANFYDWFVQQAS [C1 (D112)] |  |  |  |  |  |  | 0.19 |
| DYKDGHYFGSFYDAIDQLVAGMLPGAAAGAP (peptide, not shown: large carriers) [20E2A-3-A3-IGFR] |  |  | 1.5 |  |  | 3 |  |
| DYKDCGAKMTGTPNDPFYHKLSELLQRGAAAGAP (peptide, not shown: large carriers) [B6Hα-3-E6-IR] |  |  | 1.2 | 0.5 | 1.9 | 2.3 |  |
| YRGMLVLGRSSDGAGKVAFERPARIGQTVFAVNFYDWFV [A6L-0-E6-IR] | 0.1 | 1.8 |  |  |  |  |  |
| DYKDAETSAQVGWQRLWSVWPGDHWSTLDPFYHKLSELLRESGAAAAGAP (peptide, not shown: large carriers) [B6L-3-G5-IR] |  |  | 1.4 | 0.7 | 1.4 | 2 |  |
| IIGGFYSYFNSVLRLGT [NNRPγ-4-A1-IR] | 0.2 | 1.8 |  |  |  |  |  |
| GGTEVDFYRALERLVRGQLGL [20E2B-3-D8-IGFR] | 0.1 | 1.6 |  |  |  |  |  |
| MMVVDGFYDALHQLVVAQSLG [20E2A-3-D10-IGFR] | 0.3 | 1.8 |  |  |  |  |  |
| QPAPDGFYSALMKLIGRGGVS [20E2B-3-C8-IGFR] | 0.1 | 1.8 |  |  |  |  |  |
| DYKDMNVFVSFYDAIDQLVCQRIGCAAAGAP (peptide, not shown: large carriers) [20E2A-4-G11-IGFR] |  |  | 1.3 | 0.4 | 2.6 | 3.3 |  |
| DYKDCSMAAVAEAGDDDDPFYHKLSELCQGSAAAGAP (peptide, not shown: large carriers) [B6Hα-3-F1-IR] |  |  | 1.3 | 0.5 | 1.8 | 2.4 |  |
| DYKDAGTPAQVGXNRLWSVWPGEHWNTVDPFYNKLSELLRESGAAAAGAP (peptide, not shown: large carriers, not fully specified; X: residue not identified in the source) [B6L-4-A7-IR] |  |  | 1.9 |  | 1.8 | 3.4 |  |
| RGAVAGFHDQFYDWFDRQVSRVHKFG [H2CA-4-H9-IGFR] | 0.3 | 1.9 |  |  |  |  |  |
| DYKDGLDHSDAVGVHLGFAWPAQARGRWEAGGLEDTWAGYDWLAAAGAP (peptide, not shown: large carriers) [40F-4-B1-IGFR] |  |  | 0.2 |  |  | 3 |  |
| DYKDGCITAENGAGDPFYHKLSELGGCSAAAGAP (peptide, not shown: large carriers) [B6Hα-1-B3-IR] |  |  | 1.1 | 0.3 | 2.9 | 3.2 |  |
